This passage reports ratio to parent results from publication PMC7232412.

For one experiment, the target named is HIV-1 Gag p6 (pGBT p6) (UniProt P04591). The experiment in a line: yeast 2-hybrid assay. Conditions: parent: est. 1.0; read off a plot.
In experiment [1] the target is HIV-1 Gag p6 with ubiquitin fused to its C-terminus (pGBT p6-Ub), P04591;P0CG48. The experiment can be described thus: yeast 2-hybrid assay. The settings on record: parent: est. 1.0; read off a plot.

In the case of “human Tsg101 wild-type (pGAD-hTsg101) (from UniProt Q99816) Y43A”, the ratio to parent in the experiment with HIV-1 Gag p6 (pGBT p6) is 1.4; in experiment [1], 1.5.
